Data set [1] concerns the target T1, purified human C1q protein (human, UniProt P02745 23-245; P02746 28-253; P02747 29-245). Description: immunostaining of cells or tissue.
Data set [2] deals with the molecule itself. The data set can be described thus: negative staining electron microscopy.
Data set [3] addresses T1, purified human C1q protein. Description: pull-down.

The values below come from doi:10.1101/2022.09.22.509106 (bioRxiv, 2022).

T1 sequence (P02745 23-245, chain 1 of 3): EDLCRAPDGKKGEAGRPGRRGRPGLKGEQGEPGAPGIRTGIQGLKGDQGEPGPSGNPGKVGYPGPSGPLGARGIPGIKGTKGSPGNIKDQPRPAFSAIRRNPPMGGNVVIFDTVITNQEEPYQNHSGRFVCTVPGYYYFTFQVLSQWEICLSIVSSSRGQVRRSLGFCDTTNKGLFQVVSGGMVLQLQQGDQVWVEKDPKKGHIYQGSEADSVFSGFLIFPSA
T1 sequence (P02746 28-253, chain 2 of 3): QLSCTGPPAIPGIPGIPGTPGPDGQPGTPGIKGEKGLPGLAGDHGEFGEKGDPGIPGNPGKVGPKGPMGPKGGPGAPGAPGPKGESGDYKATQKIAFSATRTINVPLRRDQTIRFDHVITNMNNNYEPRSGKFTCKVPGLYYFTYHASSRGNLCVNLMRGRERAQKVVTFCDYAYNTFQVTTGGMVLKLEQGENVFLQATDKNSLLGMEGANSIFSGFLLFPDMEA
T1 sequence (P02747 29-245, chain 3 of 3): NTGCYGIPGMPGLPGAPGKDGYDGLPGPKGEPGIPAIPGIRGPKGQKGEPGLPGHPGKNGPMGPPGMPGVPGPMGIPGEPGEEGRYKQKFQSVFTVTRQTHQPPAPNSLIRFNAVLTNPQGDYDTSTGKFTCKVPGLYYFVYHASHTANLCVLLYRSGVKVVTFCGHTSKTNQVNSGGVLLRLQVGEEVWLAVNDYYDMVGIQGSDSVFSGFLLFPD

B1: Nptxr and Nptx2 co-expressed on a stable tetracycline-inducible CHO cell-line (Nptxr/x2) (complex, human)
chain 1: MKFLAVLLAAGMLAFLGAVICIIASVPLAASPARALPGGADNASVASGAAASPGPQRSLSALHGAGGSAGPPALPGAPAASAHPLPPGPLFSRFLCTPLAAACPSGAQQGDAAGAAPGEREELLLLQSTAEQLRQTALQQEARIRADQDTIRELTGKLGRCESGLPRGLQGAGPRRDTMADGPWDSPALILELEDAVRALRDRIDRLEQELPARVNLSAAPAPVSAVPTGLHSKMDQLEGQLLAQVLALEKERVALSHSSRRQRQEVEKELDVLQGRVAELEHGSSAYSPPDAFKISIPIRNNYMYARVRKALPELYAFTACMWLRSRSSGTGQGTPFSYSVPGQANEIVLLEAGHEPMELLINDKVAQLPLSLKDNGWHHICIAWTTRDGLWSAYQDGELQGSGENLAAWHPIKPHGILILGQEQDTLGGRFDATQAFVGDIAQFNLWDHALTPAQVLGIANCTAPLLGNVLPWEDKLVEAFGGATKAAFDVCKGRAKA
chain 2: GAQDSPAPGSRFVCTALPPEAVHAGCPLPAMPMQGGAQSPEEELRAAVLQLRETVVQQKETLGAQREAIRELTGKLARCEGLAGGKARGAGATGKDTMGDLPRDPGHVVEQLSRSLQTLKDRLESLEHQLRANVSNAGLPGDFREVLQQRLGELERQLLRKVAELEDEKSLLHNETSAHRQKTESTLNALLQRVTELERGNSAFKSPDAFKVSLPLRTNYLYGKIKKTLPELYAFTICLWLRSSASPGIGTPFSYAVPGQANEIVLIEWGNNPIELLINDKVAQLPLFVSDGKWHHICVTWTTRDGMWEAFQDGEKLGTGENLAPWHPIKPGGVLILGQEQDTVGGRFDATQAFVGELSQFNIWDRVLRAQEIVNIANCSTNMPGNIIPWVDNNVDVFGGASKWPVETCEERLLDL
Turning to B1, the Kd in data set [1] is roughly 2 nM.

B2: neuronal pentraxin 2 (Nptx2), purified recombinant, His-tagged (natural protein, UniProt P47972 16-431, looked up)
chain: B1 chain 2
For B2, the “stoichiometry N” value in data set [2] came to 6.

B3: Rat Nptx2 pentraxin domain (X2-PD) (domain or fragment, UniProt P97738 224-425, looked up)
chain: DAFKVSLPLRTNYLYGKIKKTLPELYAFTICLWLRSSASPGIGTPFSYAVPGQANEIVLIEWGNNPIELLINDKVAQLPLFVSDGKWHHICITWTTRDGMWEAFQDGEKLGTGENLAPWHPIKPGGVLILGQEQDTVGGRFDATQAFVGELSQFNIWDRVLRAQEIINIANCSTNMPGNIIPWVDNNVDVFGGASKWPVETC
B3: the binding result in data set [3] is on record as “binds”.
